The text below walks through data of PMC13202173, “Polyphosphate as a novel regulator of super-enhancer complexes: disruption of phase separation and gene expression”.

In the data set the target is MBP-mCherry-YY1 (Homo sapiens, UniProt P25490 1-414). The data set can be described thus: EMSA; 10 uM Zn2+, 100 mM KCl, no polyP; 2 uM protein, 25 nM probe; Motif EMSA: 10 mM Tris pH 7.5, 50 mM KCl, DTT, Tween 20, 5 mM MgCl2, ~25 nM probe, room temperature 30 min; G4 EMSA: 10 mM Tris-HCl pH 7.5, 100 mM KCl, 10 uM Zn, 1 mM DTT, 3% glycerol, room temperature 30 min; anisotropy: same without glycerol, on ice 30 min. As to conditions: protein: recombinant; tags: N-MBP-TEV, C-mCherry; label: 5' IRDye 700 on strand 1; G4 as stated by authors, annealed with S4 in 100 mM KCl; S3/S4 otherwise pair with mismatches.
Chain of MBP-mCherry-YY1 (P25490 whole entry): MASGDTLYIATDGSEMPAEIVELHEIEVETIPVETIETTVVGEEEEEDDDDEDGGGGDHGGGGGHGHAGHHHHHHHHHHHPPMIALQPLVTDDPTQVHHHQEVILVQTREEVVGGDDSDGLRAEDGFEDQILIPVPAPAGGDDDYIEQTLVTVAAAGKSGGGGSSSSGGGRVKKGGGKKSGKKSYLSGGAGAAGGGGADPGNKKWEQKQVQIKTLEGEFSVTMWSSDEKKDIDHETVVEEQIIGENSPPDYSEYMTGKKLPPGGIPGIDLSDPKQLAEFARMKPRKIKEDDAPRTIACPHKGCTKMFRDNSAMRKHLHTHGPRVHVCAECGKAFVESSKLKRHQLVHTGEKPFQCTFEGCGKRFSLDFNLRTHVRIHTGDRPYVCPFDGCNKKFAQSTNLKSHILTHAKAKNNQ

B1: human telomere G4 (hTEL) probe (structured_DNA)
DNA 1: AAAGGGTTAGTGTTAGTGTTAGGGAA
DNA 2: TTCCCTAACCCTAACCCTAACCCTTT
Take B1: the binding result is on record as “binds”.
